Source: patent US20190016816A1 (APTEVO RESEARCH AND DEVELOPMENT, published 2019)

T1: human 5T4 on cells (human, UniProt Q13641 32-420)
T1 construct: also called TPBG; hu5T4
T1 sequence: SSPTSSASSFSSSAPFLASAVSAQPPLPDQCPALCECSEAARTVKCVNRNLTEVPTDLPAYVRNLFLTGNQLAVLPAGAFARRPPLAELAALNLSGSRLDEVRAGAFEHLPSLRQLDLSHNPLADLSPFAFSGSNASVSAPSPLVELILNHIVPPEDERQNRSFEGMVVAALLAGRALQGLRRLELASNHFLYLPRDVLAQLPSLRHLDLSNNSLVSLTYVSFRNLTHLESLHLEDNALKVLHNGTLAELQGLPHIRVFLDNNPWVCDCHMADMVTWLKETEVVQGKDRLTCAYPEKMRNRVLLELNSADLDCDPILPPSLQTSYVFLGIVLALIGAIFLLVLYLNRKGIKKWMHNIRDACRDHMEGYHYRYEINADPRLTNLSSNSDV

T2: FcγRIIb (CD32b) (UniProt P31994 43-310, limits assumed)
T2 construct: whole, on cells
T2 sequence (looked up): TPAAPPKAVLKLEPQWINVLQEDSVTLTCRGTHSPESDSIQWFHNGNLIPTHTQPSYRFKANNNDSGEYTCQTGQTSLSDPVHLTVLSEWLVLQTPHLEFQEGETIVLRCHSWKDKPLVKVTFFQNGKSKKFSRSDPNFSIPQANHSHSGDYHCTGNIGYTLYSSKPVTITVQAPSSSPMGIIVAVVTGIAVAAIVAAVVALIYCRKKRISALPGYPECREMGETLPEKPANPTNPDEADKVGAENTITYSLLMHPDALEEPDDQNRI


Key:
human CD137 on cells [1] = target: T3, human CD137 on cells (human, UniProt Q07011 24-255); assay: cell-based or functional assay
T3 sequence (Q07011 24-255 limits assumed): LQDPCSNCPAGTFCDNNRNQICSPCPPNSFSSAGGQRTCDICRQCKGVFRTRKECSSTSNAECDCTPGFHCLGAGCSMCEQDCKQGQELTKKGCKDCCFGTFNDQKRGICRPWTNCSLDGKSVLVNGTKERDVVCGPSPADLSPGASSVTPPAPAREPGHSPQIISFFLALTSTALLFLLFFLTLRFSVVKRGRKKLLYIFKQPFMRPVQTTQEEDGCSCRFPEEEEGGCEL

human CD137 on cells [2] = target: T3, human CD137 on cells; assay: flow cytometry, CHO-K1/human CD137 cells, PE anti-human IgG Fc secondary, MFI (mean)
Protocol: Binding studies on CHO-K1 cells lines expressing CD137 were performed by standard flow cytometry-based staining procedures. CHO-K1 cells (generated by Alligator) were transfected with human or cynomolgus macaque CD137. A typical experiment would label approximately 100,000 cells per well, in 96-well plates, with a range of 100 nM to 0.05 nM binding molecule in 50 μL of saline buffer with 2% BSA and 2 mM EDTA, for 30 min on ice, followed by washes and incubation with PE-labeled secondary antibody, goat anti-human IgG Fcγ ([…]), for 20 minutes on ice. Signal from bound molecules was detected using a LSR-II™ or a Symphony A3 flow cytometer (BD Biosciences) and analyzed by FlowJo flow cytometry analysis software. […] Nonlinear regression analysis to determine EC₅₀ values was performed in GraphPad Prism 6® graphing and statistics software.

human 5T4 on cells = target: T1, human 5T4 on cells; assay: flow cytometry, H1975 cells, PE goat anti-human Fc
Protocol: A 3-fold titration of ALG.APV-210 construct (ranging from 100 nM to 0.14 nM) was incubated with the human 5T4-expressing cell lines for 40 minutes in FACS buffer at 4° C., washed 3 times, and detected with PE-labeled, goat-anti-human Fc secondary antibody (Jackson ImmunoResearch). Binding of ALG.APV-210 was detected by flow cytometry. All samples were run in duplicates. Nonlinear regression analysis to determine EC₅₀ values was performed in GraphPad Prism 6® graphing and statistics software.

FcγRIIb (CD32b) = target: T2, FcγRIIb (CD32b); assay: flow cytometry, CHO cells stably expressing CD32b, fluorescent anti-human IgG secondary, MFI (mean)
From the text: ALG.APV-210 contains mutations introduced to prevent interaction with Fcγ receptors (FcγR) that could lead to FcγR-mediated T-cell activation or ADCC, ADCP, CDC etc. Binding of ALG.APV-210 was therefore tested on CHO cell transfectants stably expressing the following FcγR: FcγRI (CD64), FcγRIIa (CD32a His131), FcγRIIb (CD32b), FcγRIIIa (CD16a Val158 and CD16a Phe158), and FcγRIIIb (CD16b). Untransfected CHO cells were used as negative control. A control human IgG1 molecule was used as a positive control. Different concentrations of ALG.APV-210 or control IgG1 were incubated with the FcγR-expressing cell lines, washed, and labeled with a secondary anti-human IgG reagent. Binding of ALG.APV-210 and the control IgG1 was detected by flow cytometry.

human CD137 on cells [3] = target: T3, human CD137 on cells; assay: flow cytometry, MFI of the CD137 positive cells; human CD8 T cells, MFI of CD137 positive cells
Protocol: (§1) Following 48 h of incubation with or without CD3, human and cynomolgus PBMC were harvested, pooled, recounted and diluted in FACS buffer (PBS+0.5% BSA, 0.05% NaN₃) to a concentration of 5×10⁶ cells/mL. 50 μL (0.25×10⁶ cells) of cell solution was added to a 96-well FACS staining plate (Falcon #351190). Following 10 min of Fc-blocking in RT using Beriglobin (hIgG, 200 μg/mL), cells were washed in FACS buffer and then incubated for 1 h in 4° C. with 100 μL of the biotinylated ALG.APV-210 or negative control. The antibodies were added in a serial dilution starting either at 5 μg/mL titrating down in a 12 step ⅓ dilution down to […] (exp 1) or 1 μg/mL titrating down in a 12 step ½ dilution down to 0.0005 μg/mL (exp 2). […] Cells were analysed for ALG.APV-210 binding using flow cytometry by gating on viable, single cells expressing CD3 and CD8. MFI values (FMO subtracted) from 2 independent experiments as well as normalized pooled data from 2 experiments and EC₅₀-values were determined and plotted using GraphPad Prism 7, non-linear regression log (agonist) vs. normalized response—variable slope, n=6 donors/group.

human CD137 on cells [4] = target: T3, human CD137 on cells; assay: flow cytometry, percentage of CD8 T cells (gated from CD3-stimulated human PBMC) bound by the biotinylated antibody, exp 1, n=3 donors
Protocol: as §1

Binder | CD137 reporter assay with HCC1143 cells, EC50 against ALG.APV-004 (human CD137 on cells [1]) | CD137 reporter assay with HCC1143 cells, EC50 against ALG.APV-006 and ALG.APV-004 (human CD137 on cells [1]) | EC50 (human CD137 on cells [2]) | Maximum MFI (human CD137 on cells [2]) | EC50 (human 5T4 on cells) | binding result (FcγRIIb (CD32b)) | EC50 (human CD137 on cells [3]) | EC50 (read off the curve) (human CD137 on cells [4])
ALG.APV-187 (bispecific antibody, Optimized ADAPTIR scFv-Fc-scFv homodimer with stabilizing disulfide in the 1210 scFv) EVQLLESGGGLVQPGGSLRLSCAASGFTFSHGSMYWVRQAPGKGLEWVSSISSGSGSTYYADSVKGRFTISHDNSKNTLYLQMNSLRAEDTAVYYCARSSYYGSYYSIDYWGQGTLVTVSSGGGGSGGGGSGGGGSGGGGSDIQMTQSPSSLSASVGDRVTITCRASQSISSYLNWYQQKPGKAPKLLIYAASSLQSGVPSRFSGSGSGTDFTLTISSLQPEDFATYYCQQYYDNLPTFGQGTKLEIKSSEPKSSDKTHTCPPCPAPEAAGAPSVFLFPPKPKDTLMISRTPEVTCVVVDVSHEDPEVKFNWYVDGVEVHNAKTKPREEQYNSTYRVVSVLTVLHQDWLNGKEYKCAVSNKALPAPIEKTISKAKGQPREPQVYTLPPSRDELTKNQVSLTCLVKGFYPSDIAVEWESNGQPENNYKTTPPVLDSDGSFFLYSKLTVDKSRWQQGNVFSCSVMHEALHNHYTQKSLSLSPGSGGGGSGGGGSGGGGSPSEVQLLESGGGLVQPGGSLRLSCAASGFTFSSYAMSWVRQAPGKCLEWVSAISGSGGSTYYADSVKGRFTISRDNSKNTLYLQMNSLRAEDTAVYYCARYYGGYYSAWMDYWGQGTLVTVSSGGGGSGGGGSGGGGSGGGGSDIQMTQSPSSLSASVGDRVTITCRASQSISSFLNWYQQKPGKAPKLLIYAASSLQSGVPSRFSGSGSGTDFTLTISSLQPEDSATYYCQQTYGYLHTFGCGTKLEIKR | 10 fold lower EC50 | ≤ 6 fold lower EC50 | 0.41 nM | 8720 |  |  |  | 
ALG.APV-210 (bispecific antibody, Optimized ADAPTIR scFv-Fc-scFv homodimer with stabilizing disulfide in the 1210 scFv; also called 5T4-CD137 bispecific antibody) EVQLLESGGGLVQPGGSLRLSCAASGFTFSHGSMYWVRQAPGKGLEWVSSISSGSGSTYYADSVKGRFTISHDNSKNTLYLQMNSLRAEDTAVYYCARSSYYGSYYSIDYWGQGTLVTVSSGGGGSGGGGSGGGGSGGGGSDIQMTQSPSSLSASVGDRVTITCRASQSISSYLNWYQQKPGKAPKLLIYAASSLQSGVPSRFSGSGSGTDFTLTISSLQPEDFATYYCQQYYDNLPTFGQGTKLEIKEPKSSDKTHTCPPCPAPEAAGAPSVFLFPPKPKDTLMISRTPEVTCVVVDVSHEDPEVKFNWYVDGVEVHNAKTKPREEQYNSTYRVVSVLTVLHQDWLNGKEYKCAVSNKALPAPIEKTISKAKGQPREPQVYTLPPSRDELTKNQVSLTCLVKGFYPSDIAVEWESNGQPENNYKTTPPVLDSDGSFFLYSKLTVDKSRWQQGNVFSCSVMHEALHNHYTQKSLSLSPGSGGGGSGGGGSGGGGSPSEVQLLESGGGLVQPGGSLRLSCAASGFTFSSYAMSWVRQAPGKCLEWVSAISGSGGSTYYADSVKGRFTISRDNSKNTLYLQMNSLRAEDTAVYYCARYYGGYYSAWMDYWGQGTLVTVSSGGGGSGGGGSGGGGSGGGGSDIQMTQSPSSLSASVGDRVTITCRASQSISSFLNWYQQKPGKAPKLLIYAASSLQSGVPSRFSGSGSGTDFTLTISSLQPEDSATYYCQQTYGYLHTFGCGTKLEIKR | 10 fold lower EC50 |  | 0.56 nM | 8970 | 20 nM | no binding (tested: 1000 nM) |  | 
biotinylated ALG.APV-210 (bispecific antibody, also called ALG.APV-210 (biotinylated for FACS detection)) EVQLLESGGGLVQPGGSLRLSCAASGFTFSHGSMYWVRQAPGKGLEWVSSISSGSGSTYYADSVKGRFTISHDNSKNTLYLQMNSLRAEDTAVYYCARSSYYGSYYSIDYWGQGTLVTVSSGGGGSGGGGSGGGGSGGGGSDIQMTQSPSSLSASVGDRVTITCRASQSISSYLNWYQQKPGKAPKLLIYAASSLQSGVPSRFSGSGSGTDFTLTISSLQPEDFATYYCQQYYDNLPTFGQGTKLEIKEPKSSDKTHTCPPCPAPEAAGAPSVFLFPPKPKDTLMISRTPEVTCVVVDVSHEDPEVKFNWYVDGVEVHNAKTKPREEQYNSTYRVVSVLTVLHQDWLNGKEYKCAVSNKALPAPIEKTISKAKGQPREPQVYTLPPSRDELTKNQVSLTCLVKGFYPSDIAVEWESNGQPENNYKTTPPVLDSDGSFFLYSKLTVDKSRWQQGNVFSCSVMHEALHNHYTQKSLSLSPGSGGGGSGGGGSGGGGSPSEVQLLESGGGLVQPGGSLRLSCAASGFTFSSYAMSWVRQAPGKCLEWVSAISGSGGSTYYADSVKGRFTISRDNSKNTLYLQMNSLRAEDTAVYYCARYYGGYYSAWMDYWGQGTLVTVSSGGGGSGGGGSGGGGSGGGGSDIQMTQSPSSLSASVGDRVTITCRASQSISSFLNWYQQKPGKAPKLLIYAASSLQSGVPSRFSGSGSGTDFTLTISSLQPEDSATYYCQQTYGYLHTFGCGTKLEIKR |  |  |  |  |  |  | 0.17 nM | ~0.02 nM
